Changes are numbered by the printed parent chain.
Key:
cellular chromatin = test: Chromatin appearance in inducible cell lines (immunofluorescence, DAPI); type: cell-based; conditions: inducible expression
Excerpt: Primary small airway epithelial cells (SAECs), U2OS, HeLa, 293, THP-1 and A549 cells were obtained from the American Tissue Culture Collection (ATCC) and grown according to the provider's instructions. Acceptor cells for generation of inducible cell lines were used as reported (Khandelia et al. (2011) Proc. Natl. Acad. Sci., 108:12799-12804). Protein VII, preVII and V were cloned from genomic DNA isolated from HeLa cells infected with adenovirus type 5 and inserted into the inducible plasmid cassette with a C-terminal HA tag using restriction enzymes BsrGI and AgeI. Positive clones were selected in DH5a cells, sequenced, and transfected into A549, U2OS or HeLa acceptor cells along with plasmid expressing the Cre recombinase. Recombined clones were selected by puromycin resistance (1 μg/mL) and induced with doxycycline (0.2 μg/mL) to express the desired protein. Protein expression was verified by immunofluorescence and western blot. All figures shown are after 4 days of induction unless otherwise stated. Protein VII and preVII were also verified by HPLC purification and mass spectrometry analysis. Point mutations were generated by gene synthesis from Genewiz.
Cells were grown on glass coverslips in 24-well plates and either infected or induced with doxycycline (0.2 μg/mL). […]

DNA = test: Gel shift of recombinant protein VII-His with 195 bp DNA; type: binding; conditions: purified recombinant protein
Method: Gel shift and MNase digestion assays were carried out as described (Falk et al. (2015) Science 348:699-703; Hasson et al. (2013) Nat. Struct. Mol. Biol., 20:687-695; Sekulic et al. (2010) Nature 467:347-351). Briefly, nucleosomes were reconstituted by incubating purified recombinant histones with ‘601’ DNA of either 195 or 147 bp over a series of dialysis. Recombinant protein VII-His was then combined with nucleosomes at various molar ratios, incubated at room temperature for 15 minutes, and analyzed by native gel electrophoresis. Complexes were also digested with MNase (Affymetrix) by addition of 1 unit per μg of DNA for 147 bp nucleosome experiments and 0.1 unit per μg of DNA for 195 bp nucleosome experiments, incubated at 22° C. for varying amounts of time followed by the addition of EGTA and guanidine thiocyanate to stop the reaction. The DNA fragments were then purified using a MinElute PCR purification kit (Qiagen) and analyzed on an Agilent 2100 Bioanalyzer as described (Falk et al. (2015) Science 348:699-703).

HMGB1 [1] = target: T1, HMGB1 (Homo sapiens, UniProt P09429); test: In vitro binding assay: recombinant protein VII-His with HMGB1-GST, cobalt resin pull-down; conditions: equimolar HMGB1-GST and protein VII-His
T1 sequence (P09429 1-215): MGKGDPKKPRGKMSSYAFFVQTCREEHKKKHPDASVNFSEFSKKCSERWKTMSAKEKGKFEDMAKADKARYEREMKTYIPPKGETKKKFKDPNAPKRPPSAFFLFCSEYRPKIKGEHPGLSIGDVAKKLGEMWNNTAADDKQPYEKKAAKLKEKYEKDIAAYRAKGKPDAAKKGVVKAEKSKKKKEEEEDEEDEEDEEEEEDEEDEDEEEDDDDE
Method: HMGB1-GST (Abnova) or GST (Sigma) were combined with recombinant protein VII-His at equimolar ratios and incubated at 4° C. for 1 hour. Complexes were then mixed with a cobalt resin (ThermoScientific 89964) to bind protein VII-His and any associated protein and washed three times in the binding buffer (50 mM Tris pH 8, 300 mM NaCl, 0.1% IGEPAL). The beads were then boiled in sample buffer, separated on a 4-12% NuPage gel and visualized by coomassie staining.

LPS induced lung injury = test: Murine model of LPS induced lung injury, BAL fluid analysis; type: in vivo, mouse; conditions: 24 hours after LPS exposure, versus mice expressing GFP
Method: All mice were housed in SPF conditions. All studies in mice were carried out in accordance with the recommendations in the Guide for the Care and Use of Laboratory Animals of the National Institutes of Health. C57BL/6J male mice aged 8-10 weeks were used for experiments. Mice were sedated with ketamine and xylazine. Once sedated, mice underwent orotrachial intubation, as described (Das et al. (2013) J. Vis. Exp., (73):e50318), with a 20G angiocatheter from BD (Franklin Lakes, N.J.). Mice subsequently received 5e10 GC of recombinant adenovirus expressing VII-GFP or GFP purified as described above. Four days after infection, mice were exposed to aerosolized LPS, 3 mg/mL for 30 minutes as described (Jeyaseelan et al. (2004) Infect. Immun., 72:7247-7256). One day after LPS exposure, BAL, and lung tissue were harvested as detailed (Nick et al. (2000) J. Immunol., 164:2151-2159) and examined for HMGB1 content (ELISA, Chondrex 6010) and neutrophil count (hematoxylin and eosin stain kit EMD 65044/93). Immunostaining was carried out using standard methods. A minimum of four biological replicates were used for each condition studied. Mice were assigned a random number and color at the start of the experiment and were randomized. Technicians carrying out the experiments were blinded to the identity of the samples. Tissue samples were assigned a random study number such that the technician performing the analysis was blinded. Unblinding for the purpose of data analysis occurred only after all data had been collected.

HMGB2 = target: T2, HMGB2 (Homo sapiens, UniProt P26583); test: Release assay of HMGB2 in THP-1 cells; type: cell-based; conditions: PMA-treated THP-1 cells, LPS plus nigericin
T2 construct: endogenous in cells; host or cells: THP-1 (PMA-differentiated)
T2 sequence (P26583 1-209): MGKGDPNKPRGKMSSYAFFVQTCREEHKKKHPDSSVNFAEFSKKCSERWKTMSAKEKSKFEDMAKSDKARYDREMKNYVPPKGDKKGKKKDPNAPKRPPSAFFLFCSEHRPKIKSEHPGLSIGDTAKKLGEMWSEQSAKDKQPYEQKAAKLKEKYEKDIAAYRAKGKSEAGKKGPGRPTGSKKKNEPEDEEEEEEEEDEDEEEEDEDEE
Method: (§1) THP-1 cells were seeded at a density of 2×10^5 cells per well in a 24-well plate, and stimulated into macrophage-like cells by addition of 10 ng/mL PMA for 48 hours. Cells were washed in PBS and transduced with recombinant adenovirus vectors expressing only GFP or protein VII-GFP such that >90% of cells were GFP positive. At 48 hours post transduction, cells were washed and 200 μL of serum free RPMI was added. To stimulate the inflammasome, LPS (Sigma-Aldrich L2880) with a final concentration of 0.5 μg/mL was added to wells and incubated for 2 hours, then nigericin (Sigma-Aldrich N7143) was added with a final concentration of 10 μM for 1 hour. Supernatants were collected and proteins precipitated overnight at 4° C. with a final concentration of 20% trichloroacetic acid (Sigma), washed with acetone, dried, and resuspended in 1×sample buffer with reducing agent (Invitrogen). For ELISA analysis, supernatants were harvested directly and HMGB1 content was detected by the manufacturer's instructions (Chondrex 6010). Cells were also harvested by the addition of 1×sample buffer with reducing agent (Invitrogen) and boiled. Supernatants and lysates were analyzed together by western blot.

HMGB1 [2] = target: T1, HMGB1; test: Release assay of HMGB1 in THP-1 cells; type: cell-based; set-up: endogenous in cells; conditions: PMA-treated THP-1 cells, LPS plus nigericin
Method: as §1

mouse HMGB1 = target: T3, mouse HMGB1 (Mus musculus, UniProt P63158); test: Mouse embryonic fibroblast (MEF) cells transduced to express protein VII-GFP: immunofluorescence and salt fractionation; type: cell-based
T3 construct: endogenous in cells; host or cells: mouse embryonic fibroblasts (MEF)
T3 sequence (P63158 1-215): T1 sequence (P09429 1-215) with E189D, D202E
Method: Cells were grown on glass coverslips in 24-well plates and either infected or induced with doxycycline (0.2 μg/mL). Cells were harvested for immunofluorescence at the indicated time points, washed in phosphate-buffered saline (PBS), fixed in 4% paraformaldehyde for 15 minutes and post-fixed with 100% ice-cold methanol for 5 minutes. Coverslips were then blocked and stained as described (Lilley et al. (2011) PLoS Pathog., 7:e1002084) and mounted using ProLong Gold Antifade Reagent (Life Technologies). Immunofluorescence was visualized using a Zeiss LSM Confocal microscope and ZEN 2011 software. Images were processed using ImageJ and assembled with Adobe CS6. All scale bars show in the Figures are 10 μm unless otherwise stated.
Salt fractionation of nuclei was adapted from established protocols (Zaret, K. (2005) Micrococcal nuclease analysis of chromatin structure. Curr. Protoc. Mol., Biol. Chapter 21, Unit 21.1; Teves et al. (2012) Methods Mol. Biol., 833:421-432). […] The final pellet was resuspended in 400 μL ddH2O and all samples were analyzed together by western blot. An aliquot of each supernatant was set aside for DNA purification using a PCR purification kit (Qiagen) and analyzed by agarose gel electrophoresis. […]

Molecule: PRM1: human protamine PRM1, a basic protein involved in sperm DNA compaction (ARYRCCRSQSRSRYYRQRQRSRRRRRRSCQTRRRAMRCCRPRYRPRCRRH; UniProt P04553 2-51, looked up) [reference compound]
- Effect on chromatin appearance (cellular chromatin): did not affect chromatin appearance

B1: recombinant protein VII: Ad5 protein VII with C-terminal hexahistidine tag, purified from E. coli (protein)
chain: AKKRSDQHPVRVRGHYRAPWGAHKRGRTGRTTVDDAIDAVVEEARNYTPTPPPVSTVDAAIQTVVRGARRYAKMKRRRRRVARRHRRRPGTAAQRAAAALLNRARRTGRRAAMRAARRLAAGIVTVPPRSRRRAAAAAAAAISAMTQGRRGNVYWVRDSVSGLRVPVRTRPPRN
modifications: left off: small tags and cut ends
notes: Ad5 protein VII with C-terminal hexahistidine tag, purified from E. coli
- DNA binding (DNA): binds to DNA
- Direct binding of recombinant protein VII to HMGB1 in vitro (HMGB1 [1]): Direct binding

B2: protein VII-GFP (protein)
chain: B1 chain
modifications: left off: large carriers
- HMGB1 in BAL fluid (LPS induced lung injury): decreases HMGB1
- Neutrophils in BAL fluid (LPS induced lung injury): significantly fewer
- HMGB2 in supernatants (HMGB2): sufficient to inhibit HMGB1 and HMGB2 release
- HMGB1 in supernatants (HMGB1 [2]): sufficient to inhibit HMGB1 and HMGB2 release
- Relocalization of mouse HMGB1 (mouse HMGB1): sufficient to relocalize mouse HMGB1
- Retention of mouse HMGB1 in the high salt fraction (mouse HMGB1): sufficient to retain mouse HMGB1 in the high salt fraction
